IntAct's records for PubMed 11847120

B1: POU domain, class 2, transcription factor 1 (Homo sapiens), P14859-1 (parent)
chain: MNNPSETSKPSMESGDGNTGTQTNGLDFQKQPVPVGGAISTAQAQAFLGHLHQVQLAGTSLQAAAQSLNVQSKSNEESGDSQQPSQPSQQPSVQAAIPQTQLMLAGGQITGLTLTPAQQQLLLQQAQAQAQLLAAAVQQHSASQQHSAAGATISASAATPMTQIPLSQPIQIAQDLQQLQQLQQQNLNLQQFVLVHPTTNLQPAQFIISQTPQGQQGLLQAQNLLTQLPQQSQANLLQSQPSITLTSQPATPTRTIAATPIQTLPQSQSTPKRIDTPSLEEPSDLEELEQFAKTFKQRRIKLGFTQGDVGLAMGKLYGNDFSQTTISRFEALNLSFKNMCKLKPLLEKWLNDAENLSSDSSLSSPSALNSPGIEGLSRRRKKRTSIETNIRVALEKSFLENQKPTSEEITMIADQLNMEKEVIRVWFCNRRQKEKRINPPSSGGTSSSPIKAIFPSPTSLVATTPSLVTSSAATTLTVSPVLPLTSAAVTNLSVTGTSDTTSNNTATVISTAPPASSAVTSPSLSPSPSASASTSEASSASETSTTQTTSTPLSSPLGTSQVMVTASGLQTAAAAALQGAAQLPANASLAAMAAAAGLNPSLMAPSQFAAGGALLSLNPGTLSGALSPALMSNSTLATIQALASGGSLPITSLDATGNLVFANAGGAPNIVTAPLFLNPQNLSLLTSNPVSLVSAAAASAGNSAPVASLHATSTSAESIQNSLFTVASASGAASTTTTASKAQ
partner: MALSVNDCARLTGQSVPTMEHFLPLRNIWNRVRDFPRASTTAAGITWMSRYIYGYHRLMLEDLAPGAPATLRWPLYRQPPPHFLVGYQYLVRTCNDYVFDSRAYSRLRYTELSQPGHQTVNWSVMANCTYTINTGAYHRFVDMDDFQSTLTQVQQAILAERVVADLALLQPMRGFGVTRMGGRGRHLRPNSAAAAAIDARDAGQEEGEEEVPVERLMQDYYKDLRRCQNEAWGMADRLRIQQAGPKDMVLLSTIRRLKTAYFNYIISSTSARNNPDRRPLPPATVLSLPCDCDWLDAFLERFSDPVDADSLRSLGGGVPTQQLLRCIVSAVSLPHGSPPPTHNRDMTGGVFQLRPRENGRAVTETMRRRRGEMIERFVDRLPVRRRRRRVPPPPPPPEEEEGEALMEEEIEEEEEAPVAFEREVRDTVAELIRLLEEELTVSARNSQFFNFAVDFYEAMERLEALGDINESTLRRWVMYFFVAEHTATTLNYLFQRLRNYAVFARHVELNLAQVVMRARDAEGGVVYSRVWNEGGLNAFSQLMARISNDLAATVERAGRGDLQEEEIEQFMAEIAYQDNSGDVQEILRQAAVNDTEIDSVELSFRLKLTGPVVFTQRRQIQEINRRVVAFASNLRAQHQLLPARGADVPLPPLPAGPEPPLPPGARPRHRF

Variants of: B1
Conditions: with term_ade05 PTP

Question: With E408G as the variant, how does the “effect of a mutation on the interaction” value read?
Answer: decreasing interaction strength

Question: For K403E, which “effect of a mutation on the interaction” value is on record?
Answer: decreasing interaction strength

Question: K403M was tested. Which “effect of a mutation on the interaction” value did it give?
Answer: disrupting interaction strength

Question: For R383S, which “effect of a mutation on the interaction” value is on record?
Answer: decreasing interaction strength

Question: R431S was tested. Which “effect of a mutation on the interaction” value did it give?
Answer: decreasing interaction strength

Question: Which “effect of a mutation on the interaction” value does the source give for D414G;V425G here?
Answer: disrupting interaction strength

Question: With E419G;K433E as the variant, how does the “effect of a mutation on the interaction” value read?
Answer: decreasing interaction strength

Question: With R380W as the variant, how does the “effect of a mutation on the interaction” value read?
Answer: disrupting interaction strength

Question: With S377G;K420E as the variant, how does the “effect of a mutation on the interaction” value read?
Answer: disrupting interaction strength

Question: With K382T as the variant, how does the “effect of a mutation on the interaction” value read?
Answer: decreasing interaction strength

Question: For F427Y, which “effect of a mutation on the interaction” value is on record?
Answer: disrupting interaction strength

Question: With K403Q;R424S as the variant, how does the “effect of a mutation on the interaction” value read?
Answer: decreasing interaction strength

Question: I412F;V425D was tested. Which “effect of a mutation on the interaction” value did it give?
Answer: decreasing interaction strength

Question: For K382E;L394S, which “effect of a mutation on the interaction” value is on record?
Answer: decreasing interaction strength

Question: With T410S as the variant, how does the “effect of a mutation on the interaction” value read?
Answer: decreasing interaction strength

Question: For T384S, which “effect of a mutation on the interaction” value is on record?
Answer: decreasing interaction strength

Question: Which “effect of a mutation on the interaction” value does the source give for T384P here?
Answer: disrupting interaction strength

Question: With Q415L;C428S as the variant, how does the “effect of a mutation on the interaction” value read?
Answer: decreasing interaction strength

Question: Which “effect of a mutation on the interaction” value does the source give for E400G;M418L here?
Answer: decreasing interaction strength

Question: For C428Y, which “effect of a mutation on the interaction” value is on record?
Answer: disrupting interaction strength

Question: I373T;V425A was tested. Which “effect of a mutation on the interaction” value did it give?
Answer: decreasing interaction strength

Question: For V425G, which “effect of a mutation on the interaction” value is on record?
Answer: disrupting interaction strength

Question: For N429D, which “effect of a mutation on the interaction” value is on record?
Answer: disrupting interaction strength
